Reference: publication PMC7949155

Experiments:
Assay in all cases: SEC-MALS; size-exclusion chromatography (Superdex 200) in 10-mM Tris, pH 7.5, 150-mM NaCl with Dawn Heleos II light scattering and Optilab T-rEX dRI detectors
DdahB (C. jejuni) = target: DdahB (C. jejuni)
DdahC (C. jejuni) = target: DdahC (C. jejuni)
MlghB (C. jejuni) = target: MlghB (C. jejuni)
MlghC (C. jejuni) = target: MlghC (C. jejuni)

Question: With DdahB (enzyme) as the substance, how does the stoichiometry N (DdahB (C. jejuni)) read?
Answer: 2

Question: Which stoichiometry N (DdahC (C. jejuni)) does the source give for DdahC (enzyme) here?
Answer: 2

Question: With MlghB (enzyme) as the substance, how does the stoichiometry N (MlghB (C. jejuni)) read?
Answer: 2

Question: MlghC (enzyme) was tested. Which stoichiometry N (MlghC (C. jejuni)) did it give?
Answer: 2
